In the Human Domainome abundance scans (Beltran et al. 2025):
± gives the uncertainty stated by the source.

B1: V(D)J recombination-activating protein 2, residues 415 to 491; numbered along this chain, P55895 (parent)
chain: YWITCCPTCDVDINTWVPFYSTELNKPAMIYCSHGDGHWVHAQCMDLAERTLIHLSAGSNKYYCNEHVEIARALHTP

Variants of: B1
Experiment: abundance fitness (aPCA) (normalised: wild type 0, dead -1); higher = more abundant; growth selection in yeast, the domain comes from the species named
Settings: Homo sapiens

H75F and H75Q are within error of each other in abundance fitness: -0.087 ± 0.1 for the first, 0.089 ± 0.11 for the second.

H75R and T4Y are within error of each other in abundance fitness: -0.001 ± 0.058 for the first, -0.141 ± 0.12 for the second.

T4M and T4L are within error of each other in abundance fitness: -0.176 ± 0.08 for the first, -0.049 ± 0.053 for the second.

First: T4R
Second: T22G
The abundance fitness of the first is higher: -0.013 ± 0.035 for the first, -0.353 ± 0.17 for the second.

T22F and T22K are within error of each other in abundance fitness: -0.181 ± 0.16 for the first, 0.052 ± 0.19 for the second.

T22H and T22R are within error of each other in abundance fitness: 0.216 ± 0.46 for the first, -0.23 ± 0.11 for the second.

I30R and I30M are within error of each other in abundance fitness: -0.322 ± 0.22 for the first, -0.219 ± 0.24 for the second.

V17R and V17S are within error of each other in abundance fitness: -0.022 ± 0.13 for the first, -0.01 ± 0.2 for the second.

I53N and I53S are within error of each other in abundance fitness: 0.244 ± 0.49 for the first, 0.049 ± 0.086 for the second.

I53F and Q43E are within error of each other in abundance fitness: -0.013 ± 0.19 for the first, -0.344 ± 0.25 for the second.

Q43L and Q43S are within error of each other in abundance fitness: -0.196 ± 0.12 for the first, -0.174 ± 0.21 for the second.

Q43M and D46N are within error of each other in abundance fitness: -0.048 ± 0.19 for the first, 0.029 ± 0.11 for the second.

First: D46P
Second: D46M
The abundance fitness of the first is lower: -0.268 ± 0.087 for the first, 0.071 ± 0.07 for the second.

Compared with D46G, D46F is lower in abundance fitness: -0.03 ± 0.055 for the first, -0.221 ± 0.11 for the second.

D46V and A73D are within error of each other in abundance fitness: 0.046 ± 0.056 for the first, 0.019 ± 0.12 for the second.

First: A73V
Second: A73E
The abundance fitness of the first is lower: -0.257 ± 0.071 for the first, -0.009 ± 0.1 for the second.

A73T and A73L are within error of each other in abundance fitness: 0.033 ± 0.088 for the first, 0.053 ± 0.084 for the second.

P18A and P18G are within error of each other in abundance fitness: -0.028 ± 0.25 for the first, -0.36 ± 0.2 for the second.

P18R and L24I are within error of each other in abundance fitness: -0.381 ± 0.081 for the first, -0.156 ± 0.25 for the second.

L24M and L24P are within error of each other in abundance fitness: -0.319 ± 0.21 for the first, -0.56 ± 0.39 for the second.

L24F and R72F are within error of each other in abundance fitness: -0.362 ± 0.3 for the first, -0.131 ± 0.18 for the second.

R72I and R72T are within error of each other in abundance fitness: -0.121 ± 0.19 for the first, 0.056 ± 0.08 for the second.

First: R72E
Second: R72Y
The abundance fitness of the first is higher: -0.042 ± 0.12 for the first, -0.332 ± 0.16 for the second.

Going from I70G to I70C, the abundance fitness rises from -0.045 ± 0.053 to 0.176 ± 0.13.

I70Q and N65G are within error of each other in abundance fitness: -0.036 ± 0.089 for the first, 0.012 ± 0.047 for the second.

N65W and N65S are within error of each other in abundance fitness: 0.036 ± 0.078 for the first, 0.079 ± 0.079 for the second.

N65V and N65L are the same in abundance fitness: 0.008 ± 0.047 for the first, 0.008 ± 0.054 for the second.

D12T and I13W are within error of each other in abundance fitness: -0.226 ± 0.24 for the first, -0.12 ± 0.23 for the second.

Going from Y31R to Y31V, the abundance fitness falls from -0.04 ± 0.065 to -0.241 ± 0.063.

Going from Y31N to Y31C, the abundance fitness rises from -0.322 ± 0.14 to -0.039 ± 0.14.

Y31M and Y31K are within error of each other in abundance fitness: 0.004 ± 0.072 for the first, 0.041 ± 0.065 for the second.

Y31F and E66H are within error of each other in abundance fitness: -0.061 ± 0.073 for the first, -0.22 ± 0.17 for the second.

E66R and E66C are within error of each other in abundance fitness: -0.127 ± 0.058 for the first, 0.023 ± 0.11 for the second.

E66K and E66F are within error of each other in abundance fitness: -0.099 ± 0.092 for the first, -0.193 ± 0.22 for the second.

First: E66P
Second: P7E
The abundance fitness of the first is lower: -0.231 ± 0.08 for the first, 0.09 ± 0.22 for the second.

P7S and P7R are within error of each other in abundance fitness: 0.075 ± 0.41 for the first, -0.635 ± 0.31 for the second.

First: Y63G
Second: Y63E
The abundance fitness of the first is lower: -0.377 ± 0.081 for the first, -0.068 ± 0.077 for the second.

Y63I and Y63F are within error of each other in abundance fitness: 0.036 ± 0.12 for the first, -0.002 ± 0.13 for the second.

Y63K and C6F are within error of each other in abundance fitness: -0.005 ± 0.096 for the first, -0.304 ± 0.48 for the second.

C6V and C6S are within error of each other in abundance fitness: -0.096 ± 0.26 for the first, 0.209 ± 0.19 for the second.

C6L and L74Q are within error of each other in abundance fitness: -0.284 ± 0.33 for the first, -0.062 ± 0.25 for the second.

Y62C and Y62D are within error of each other in abundance fitness: -0.442 ± 0.2 for the first, -0.558 ± 0.11 for the second.
